From publication PMC3098231

These binders were tested against human alpha-thrombin (Homo sapiens, UniProt P00734;P00734 328-363;364-622) (assay: SPR imaging (k-1/k1); 50 nM thrombin; 20 mM Tris-HCl pH 7.4, 140 mM NaCl, 5 mM KCl, 1 mM CaCl2, 1 mM MgCl2; SPR at 25 C; EMSA in the same selection buffer, 14% native PAGE in 1X Tris-glycine at 4 C).

Binder | Kd [nM]
ACACGCGCATGCGGTTGGTGTGGTTTGGCATGCGCCACA (structured_DNA, 3'-thiol for SPR) [Motif Ia rank 3 hairpin] | 170
ACACGCGCATGCGGTTGGTTTGGTTGGGCATGCGCCACA (structured_DNA, 3'-thiol for SPR) [Motif Ia rank 9 hairpin] | 650
ACACGCGCATGCGGTTGGTGCGGTTGGGCATGCGCCACA (structured_DNA, 3'-thiol for SPR) [Motif Ia rank 25 hairpin] | 2200
